Target: T1, FcγRIIIa extracellular domain, C-terminal His tag (human, UniProt P08637 17-208)
T1 construct: extracellular domain; also called 3a
Experiment: SPR, binding activity relative to GpH7-A5/GpH7-B3/GpL16-k0 (=100)

T1 sequence (P08637 other isoform, or with tags, fused parts or gaps): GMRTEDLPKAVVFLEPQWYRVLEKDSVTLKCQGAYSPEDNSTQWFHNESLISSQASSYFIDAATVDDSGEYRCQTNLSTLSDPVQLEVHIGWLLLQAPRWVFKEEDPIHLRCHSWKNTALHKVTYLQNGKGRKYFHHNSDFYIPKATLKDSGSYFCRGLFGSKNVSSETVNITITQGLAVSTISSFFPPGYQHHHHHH

B1: GpH7-A5/GpH7-B3 variant E269_06M/GpL16-k0 (antibody, human IgG1, kappa)
heavy 1: not shown
heavy 2: not shown
light: DIVMTQSPLSLPVTPGEPASISCQASESLVHSNRNTYLHWYLQKPGQSPQLLIYKVSNRFSGVPDRFSGSGSGTDFTLKISRVEAEDVGVYYCSQNTHVPPTFGQGTKVEIERTVAAPSVFIFPPSDEQLKSGTASVVCLLNNFYPREAKVQWKVDNALQSGNSQESVTEQDSKDSTYSLSSTLTLSKADYEKHKVYACEVTHQGLSSPVTKSFNRGEC
notes: He Ab; copies: 1 + 1 + 2
He/Con 3a: 57.9%

B2: GpH7-A5/GpH7-B3 variant G236_09D/GpL16-k0 (antibody, human IgG1, kappa)
heavy 1: not shown
heavy 2: not shown
light: DIVMTQSPLSLPVTPGEPASISCQASESLVHSNRNTYLHWYLQKPGQSPQLLIYKVSNRFSGVPDRFSGSGSGTDFTLKISRVEAEDVGVYYCSQNTHVPPTFGQGTKVEIERTVAAPSVFIFPPSDEQLKSGTASVVCLLNNFYPREAKVQWKVDNALQSGNSQESVTEQDSKDSTYSLSSTLTLSKADYEKHKVYACEVTHQGLSSPVTKSFNRGEC
notes: He Ab; copies: 1 + 1 + 2
He/Con 3a: 66.2%

B3: GpH7-A5/GpH7-B3 variant G236_02A/GpL16-k0 (antibody, human IgG1, kappa)
heavy 1: not shown
heavy 2: not shown
light: DIVMTQSPLSLPVTPGEPASISCQASESLVHSNRNTYLHWYLQKPGQSPQLLIYKVSNRFSGVPDRFSGSGSGTDFTLKISRVEAEDVGVYYCSQNTHVPPTFGQGTKVEIERTVAAPSVFIFPPSDEQLKSGTASVVCLLNNFYPREAKVQWKVDNALQSGNSQESVTEQDSKDSTYSLSSTLTLSKADYEKHKVYACEVTHQGLSSPVTKSFNRGEC
notes: He Ab; copies: 1 + 1 + 2
He/Con 3a: 77%

B4: GpH7-A5/GpH7-B3 variant E333_01G/GpL16-k0 (antibody, human IgG1, kappa)
heavy 1: not shown
heavy 2: not shown
light: DIVMTQSPLSLPVTPGEPASISCQASESLVHSNRNTYLHWYLQKPGQSPQLLIYKVSNRFSGVPDRFSGSGSGTDFTLKISRVEAEDVGVYYCSQNTHVPPTFGQGTKVEIERTVAAPSVFIFPPSDEQLKSGTASVVCLLNNFYPREAKVQWKVDNALQSGNSQESVTEQDSKDSTYSLSSTLTLSKADYEKHKVYACEVTHQGLSSPVTKSFNRGEC
notes: He Ab; copies: 1 + 1 + 2
He/Con 3a: 101%

B5: GpH7-A5/GpH7-B3 variant E269_09D/GpL16-k0 (antibody, human IgG1, kappa)
heavy 1: not shown
heavy 2: not shown
light: DIVMTQSPLSLPVTPGEPASISCQASESLVHSNRNTYLHWYLQKPGQSPQLLIYKVSNRFSGVPDRFSGSGSGTDFTLKISRVEAEDVGVYYCSQNTHVPPTFGQGTKVEIERTVAAPSVFIFPPSDEQLKSGTASVVCLLNNFYPREAKVQWKVDNALQSGNSQESVTEQDSKDSTYSLSSTLTLSKADYEKHKVYACEVTHQGLSSPVTKSFNRGEC
notes: He Ab; copies: 1 + 1 + 2
He/Con 3a: 106%

B6: GpH7-A5/GpH7-B3 variant E333_11K/GpL16-k0 (antibody, human IgG1, kappa)
heavy 1: not shown
heavy 2: not shown
light: DIVMTQSPLSLPVTPGEPASISCQASESLVHSNRNTYLHWYLQKPGQSPQLLIYKVSNRFSGVPDRFSGSGSGTDFTLKISRVEAEDVGVYYCSQNTHVPPTFGQGTKVEIERTVAAPSVFIFPPSDEQLKSGTASVVCLLNNFYPREAKVQWKVDNALQSGNSQESVTEQDSKDSTYSLSSTLTLSKADYEKHKVYACEVTHQGLSSPVTKSFNRGEC
notes: He Ab; copies: 1 + 1 + 2
He/Con 3a: 97.7%

B7: GpH7-A5/GpH7-B3 variant E269_18N/GpL16-k0 (antibody, human IgG1, kappa)
heavy 1: not shown
heavy 2: not shown
light: DIVMTQSPLSLPVTPGEPASISCQASESLVHSNRNTYLHWYLQKPGQSPQLLIYKVSNRFSGVPDRFSGSGSGTDFTLKISRVEAEDVGVYYCSQNTHVPPTFGQGTKVEIERTVAAPSVFIFPPSDEQLKSGTASVVCLLNNFYPREAKVQWKVDNALQSGNSQESVTEQDSKDSTYSLSSTLTLSKADYEKHKVYACEVTHQGLSSPVTKSFNRGEC
notes: He Ab; copies: 1 + 1 + 2
He/Con 3a: 57.2%

B8: GpH7-A5/GpH7-B3 variant G236_04F/GpL16-k0 (antibody, human IgG1, kappa)
heavy 1: not shown
heavy 2: not shown
light: DIVMTQSPLSLPVTPGEPASISCQASESLVHSNRNTYLHWYLQKPGQSPQLLIYKVSNRFSGVPDRFSGSGSGTDFTLKISRVEAEDVGVYYCSQNTHVPPTFGQGTKVEIERTVAAPSVFIFPPSDEQLKSGTASVVCLLNNFYPREAKVQWKVDNALQSGNSQESVTEQDSKDSTYSLSSTLTLSKADYEKHKVYACEVTHQGLSSPVTKSFNRGEC
notes: He Ab; copies: 1 + 1 + 2
He/Con 3a: 81%

B9: GpH7-A5/GpH7-B3 variant E269_08L/GpL16-k0 (antibody, human IgG1, kappa)
heavy 1: not shown
heavy 2: not shown
light: DIVMTQSPLSLPVTPGEPASISCQASESLVHSNRNTYLHWYLQKPGQSPQLLIYKVSNRFSGVPDRFSGSGSGTDFTLKISRVEAEDVGVYYCSQNTHVPPTFGQGTKVEIERTVAAPSVFIFPPSDEQLKSGTASVVCLLNNFYPREAKVQWKVDNALQSGNSQESVTEQDSKDSTYSLSSTLTLSKADYEKHKVYACEVTHQGLSSPVTKSFNRGEC
notes: He Ab; copies: 1 + 1 + 2
He/Con 3a: 51.5%

B10: GpH7-A5/GpH7-B3 variant E333_06M/GpL16-k0 (antibody, human IgG1, kappa)
heavy 1: not shown
heavy 2: not shown
light: DIVMTQSPLSLPVTPGEPASISCQASESLVHSNRNTYLHWYLQKPGQSPQLLIYKVSNRFSGVPDRFSGSGSGTDFTLKISRVEAEDVGVYYCSQNTHVPPTFGQGTKVEIERTVAAPSVFIFPPSDEQLKSGTASVVCLLNNFYPREAKVQWKVDNALQSGNSQESVTEQDSKDSTYSLSSTLTLSKADYEKHKVYACEVTHQGLSSPVTKSFNRGEC
notes: He Ab; copies: 1 + 1 + 2
He/Con 3a: 100%

B11: GpH7-A5/GpH7-B3 variant E269_13S/GpL16-k0 (antibody, human IgG1, kappa)
heavy 1: not shown
heavy 2: not shown
light: DIVMTQSPLSLPVTPGEPASISCQASESLVHSNRNTYLHWYLQKPGQSPQLLIYKVSNRFSGVPDRFSGSGSGTDFTLKISRVEAEDVGVYYCSQNTHVPPTFGQGTKVEIERTVAAPSVFIFPPSDEQLKSGTASVVCLLNNFYPREAKVQWKVDNALQSGNSQESVTEQDSKDSTYSLSSTLTLSKADYEKHKVYACEVTHQGLSSPVTKSFNRGEC
notes: He Ab; copies: 1 + 1 + 2
He/Con 3a: 62.1%

B12: GpH7-A5/GpH7-B3 variant E333_12R/GpL16-k0 (antibody, human IgG1, kappa)
heavy 1: not shown
heavy 2: not shown
light: DIVMTQSPLSLPVTPGEPASISCQASESLVHSNRNTYLHWYLQKPGQSPQLLIYKVSNRFSGVPDRFSGSGSGTDFTLKISRVEAEDVGVYYCSQNTHVPPTFGQGTKVEIERTVAAPSVFIFPPSDEQLKSGTASVVCLLNNFYPREAKVQWKVDNALQSGNSQESVTEQDSKDSTYSLSSTLTLSKADYEKHKVYACEVTHQGLSSPVTKSFNRGEC
notes: He Ab; copies: 1 + 1 + 2
He/Con 3a: 92.2%

B13: GpH7-A5/GpH7-B3 variant E333_07I/GpL16-k0 (antibody, human IgG1, kappa)
heavy 1: not shown
heavy 2: not shown
light: DIVMTQSPLSLPVTPGEPASISCQASESLVHSNRNTYLHWYLQKPGQSPQLLIYKVSNRFSGVPDRFSGSGSGTDFTLKISRVEAEDVGVYYCSQNTHVPPTFGQGTKVEIERTVAAPSVFIFPPSDEQLKSGTASVVCLLNNFYPREAKVQWKVDNALQSGNSQESVTEQDSKDSTYSLSSTLTLSKADYEKHKVYACEVTHQGLSSPVTKSFNRGEC
notes: He Ab; copies: 1 + 1 + 2
He/Con 3a: 100%

B14: GpH7-A5/GpH7-B3 variant E269_16H/GpL16-k0 (antibody, human IgG1, kappa)
heavy 1: not shown
heavy 2: not shown
light: DIVMTQSPLSLPVTPGEPASISCQASESLVHSNRNTYLHWYLQKPGQSPQLLIYKVSNRFSGVPDRFSGSGSGTDFTLKISRVEAEDVGVYYCSQNTHVPPTFGQGTKVEIERTVAAPSVFIFPPSDEQLKSGTASVVCLLNNFYPREAKVQWKVDNALQSGNSQESVTEQDSKDSTYSLSSTLTLSKADYEKHKVYACEVTHQGLSSPVTKSFNRGEC
notes: He Ab; copies: 1 + 1 + 2
He/Con 3a: 50.7%

B15: GpH7-A5/GpH7-B3 variant E333_18N/GpL16-k0 (antibody, human IgG1, kappa)
heavy 1: not shown
heavy 2: not shown
light: DIVMTQSPLSLPVTPGEPASISCQASESLVHSNRNTYLHWYLQKPGQSPQLLIYKVSNRFSGVPDRFSGSGSGTDFTLKISRVEAEDVGVYYCSQNTHVPPTFGQGTKVEIERTVAAPSVFIFPPSDEQLKSGTASVVCLLNNFYPREAKVQWKVDNALQSGNSQESVTEQDSKDSTYSLSSTLTLSKADYEKHKVYACEVTHQGLSSPVTKSFNRGEC
notes: He Ab; copies: 1 + 1 + 2
He/Con 3a: 76.2%

B16: GpH7-A5/GpH7-B3 variant E269_14T/GpL16-k0 (antibody, human IgG1, kappa)
heavy 1: not shown
heavy 2: not shown
light: DIVMTQSPLSLPVTPGEPASISCQASESLVHSNRNTYLHWYLQKPGQSPQLLIYKVSNRFSGVPDRFSGSGSGTDFTLKISRVEAEDVGVYYCSQNTHVPPTFGQGTKVEIERTVAAPSVFIFPPSDEQLKSGTASVVCLLNNFYPREAKVQWKVDNALQSGNSQESVTEQDSKDSTYSLSSTLTLSKADYEKHKVYACEVTHQGLSSPVTKSFNRGEC
notes: He Ab; copies: 1 + 1 + 2
He/Con 3a: 59.7%

B17: GpH7-A5/GpH7-B3 variant E333_14T/GpL16-k0 (antibody, human IgG1, kappa)
heavy 1: not shown
heavy 2: not shown
light: DIVMTQSPLSLPVTPGEPASISCQASESLVHSNRNTYLHWYLQKPGQSPQLLIYKVSNRFSGVPDRFSGSGSGTDFTLKISRVEAEDVGVYYCSQNTHVPPTFGQGTKVEIERTVAAPSVFIFPPSDEQLKSGTASVVCLLNNFYPREAKVQWKVDNALQSGNSQESVTEQDSKDSTYSLSSTLTLSKADYEKHKVYACEVTHQGLSSPVTKSFNRGEC
notes: He Ab; copies: 1 + 1 + 2
He/Con 3a: 100%

B18: GpH7-A5/GpH7-B3 variant E269_15Y/GpL16-k0 (antibody, human IgG1, kappa)
heavy 1: not shown
heavy 2: not shown
light: DIVMTQSPLSLPVTPGEPASISCQASESLVHSNRNTYLHWYLQKPGQSPQLLIYKVSNRFSGVPDRFSGSGSGTDFTLKISRVEAEDVGVYYCSQNTHVPPTFGQGTKVEIERTVAAPSVFIFPPSDEQLKSGTASVVCLLNNFYPREAKVQWKVDNALQSGNSQESVTEQDSKDSTYSLSSTLTLSKADYEKHKVYACEVTHQGLSSPVTKSFNRGEC
notes: He Ab; copies: 1 + 1 + 2
He/Con 3a: 51.5%

B19: GpH7-A5/GpH7-B3 variant E269_19Q/GpL16-k0 (antibody, human IgG1, kappa)
heavy 1: not shown
heavy 2: not shown
light: DIVMTQSPLSLPVTPGEPASISCQASESLVHSNRNTYLHWYLQKPGQSPQLLIYKVSNRFSGVPDRFSGSGSGTDFTLKISRVEAEDVGVYYCSQNTHVPPTFGQGTKVEIERTVAAPSVFIFPPSDEQLKSGTASVVCLLNNFYPREAKVQWKVDNALQSGNSQESVTEQDSKDSTYSLSSTLTLSKADYEKHKVYACEVTHQGLSSPVTKSFNRGEC
notes: He Ab; copies: 1 + 1 + 2
He/Con 3a: 64.3%

B20: GpH7-A5/GpH7-B3 variant G236_07I/GpL16-k0 (antibody, human IgG1, kappa)
heavy 1: not shown
heavy 2: not shown
light: DIVMTQSPLSLPVTPGEPASISCQASESLVHSNRNTYLHWYLQKPGQSPQLLIYKVSNRFSGVPDRFSGSGSGTDFTLKISRVEAEDVGVYYCSQNTHVPPTFGQGTKVEIERTVAAPSVFIFPPSDEQLKSGTASVVCLLNNFYPREAKVQWKVDNALQSGNSQESVTEQDSKDSTYSLSSTLTLSKADYEKHKVYACEVTHQGLSSPVTKSFNRGEC
notes: He Ab; copies: 1 + 1 + 2
He/Con 3a: 55.6%

B21: GpH7-A5/GpH7-B3 variant E269_07I/GpL16-k0 (antibody, human IgG1, kappa)
heavy 1: not shown
heavy 2: not shown
light: DIVMTQSPLSLPVTPGEPASISCQASESLVHSNRNTYLHWYLQKPGQSPQLLIYKVSNRFSGVPDRFSGSGSGTDFTLKISRVEAEDVGVYYCSQNTHVPPTFGQGTKVEIERTVAAPSVFIFPPSDEQLKSGTASVVCLLNNFYPREAKVQWKVDNALQSGNSQESVTEQDSKDSTYSLSSTLTLSKADYEKHKVYACEVTHQGLSSPVTKSFNRGEC
notes: He Ab; copies: 1 + 1 + 2
He/Con 3a: 55.3%

B22: GpH7-A5/GpH7-B3 variant G236_03V/GpL16-k0 (antibody, human IgG1, kappa)
heavy 1: not shown
heavy 2: not shown
light: DIVMTQSPLSLPVTPGEPASISCQASESLVHSNRNTYLHWYLQKPGQSPQLLIYKVSNRFSGVPDRFSGSGSGTDFTLKISRVEAEDVGVYYCSQNTHVPPTFGQGTKVEIERTVAAPSVFIFPPSDEQLKSGTASVVCLLNNFYPREAKVQWKVDNALQSGNSQESVTEQDSKDSTYSLSSTLTLSKADYEKHKVYACEVTHQGLSSPVTKSFNRGEC
notes: He Ab; copies: 1 + 1 + 2
He/Con 3a: 53.8%

From US20260167699A1 (Chugai, published 2026)
